Measured values: publication PMC12025393, “Neuregulin-1 (NRG1) Binds to the Allosteric Binding Site (Site 2) and Suppresses Allosteric Integrin Activation by Inflammatory Cytokines: A Potential Mechanism of Anti-Inflammatory and Anti-Fibrosis Action of NRG1” (Cells, 2025)
No end group written: not given here.

Biological target: T1, WT NRG1 EGF-like domain
T1 construct: also called NRG1 EGF domain; neuregulin-1; source: endotoxin-free E. coli BL21 (DE3) pLysS Clear-coli, purified (Ni-NTA in 8M urea, re-folded)
T1 chain: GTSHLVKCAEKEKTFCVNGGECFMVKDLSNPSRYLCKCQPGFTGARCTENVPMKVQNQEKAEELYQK
Assay: ELISA; NRG1 (20 μg/mL in PBS) immobilised to wells, blocked with 0.1% BSA; peptides fused to GST in PBS/Tween20 (0.05%), 1 h at room temperature; HRP-conjugated anti-GST antibody; signals with scrambled β3 site 2 peptide subtracted
Conditions: both partners purified

binding result: binds
B1: β3 specificity-determining loop (SDL) peptide fused to GST (peptide)
chain: DKPVSPYMYISPPEALENPCYDMKTTCLPMF
modifications: not fully specified (N-terminus); cysteine pairing not given here; also: fused to GST
notes: cDNA fragment subcloned into the BamHI/EcoRI site of pGEX2T; also called β3 SDL peptide; β3-SDL peptide; source: E. coli BL21, purified (Glutathione Sepharose)
